Here are results for 27 molecules from US11827699 (dated 2023).

Where a chain is given by its changes, count along the chain named. Read-outs that look alike come from different tables or passages of the source.

What all share (assay): SPR
Assay [1] deals with T1, human FcγRIIa R131 (human, UniProt P12318).
T1 chain: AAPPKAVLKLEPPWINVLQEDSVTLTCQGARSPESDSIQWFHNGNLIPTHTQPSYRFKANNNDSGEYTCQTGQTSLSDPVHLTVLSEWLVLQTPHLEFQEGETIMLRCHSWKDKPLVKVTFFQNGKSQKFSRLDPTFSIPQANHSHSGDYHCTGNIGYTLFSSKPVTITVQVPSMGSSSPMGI

Assay [2] concerns the target T2, human FcγRIIb (human, UniProt P31994).
T2 chain: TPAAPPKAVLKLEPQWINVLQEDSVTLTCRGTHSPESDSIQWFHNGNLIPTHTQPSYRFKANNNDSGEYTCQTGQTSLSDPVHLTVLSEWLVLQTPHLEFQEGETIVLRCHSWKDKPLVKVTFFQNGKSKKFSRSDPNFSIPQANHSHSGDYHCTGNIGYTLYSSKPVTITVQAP

The target in assay [3] is T1, human FcγRIIa R131.
For assay [4], the target named is T2, human FcγRIIb.
In assay [5] the target is T3, human FcγRIa (human, UniProt P12314).
T3 chain: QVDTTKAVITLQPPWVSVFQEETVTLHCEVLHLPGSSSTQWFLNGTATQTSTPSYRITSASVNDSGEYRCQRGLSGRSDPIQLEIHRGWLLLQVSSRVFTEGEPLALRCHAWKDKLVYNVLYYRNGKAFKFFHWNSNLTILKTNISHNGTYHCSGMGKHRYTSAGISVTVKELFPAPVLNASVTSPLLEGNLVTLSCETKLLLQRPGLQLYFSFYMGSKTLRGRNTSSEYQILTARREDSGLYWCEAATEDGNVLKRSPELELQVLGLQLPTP

In assay [6] the target is T2, human FcγRIIb.
Assay [7] deals with T3, human FcγRIa.
Assay [8] addresses T1, human FcγRIIa R131.
In assay [9] the target is T2, human FcγRIIb.
The target in assay [10] is T3, human FcγRIa.
Assay [11] deals with T3, human FcγRIa.
Assay [12] concerns the target T2, human FcγRIIb.
Assay [13] has as its target T1, human FcγRIIa R131.
In assay [14] the target is T3, human FcγRIa.
The target of another assay is T4, mouse FcγRIV (mouse, UniProt A0A0B4J1G0).
T4 chain: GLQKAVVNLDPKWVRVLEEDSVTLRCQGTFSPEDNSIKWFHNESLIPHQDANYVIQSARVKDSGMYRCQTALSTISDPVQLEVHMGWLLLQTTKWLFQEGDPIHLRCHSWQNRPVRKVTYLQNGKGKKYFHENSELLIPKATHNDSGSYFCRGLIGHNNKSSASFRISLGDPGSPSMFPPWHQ

Another assay addresses T5, mouse FcγRI (mouse, UniProt P26151).
T5 chain: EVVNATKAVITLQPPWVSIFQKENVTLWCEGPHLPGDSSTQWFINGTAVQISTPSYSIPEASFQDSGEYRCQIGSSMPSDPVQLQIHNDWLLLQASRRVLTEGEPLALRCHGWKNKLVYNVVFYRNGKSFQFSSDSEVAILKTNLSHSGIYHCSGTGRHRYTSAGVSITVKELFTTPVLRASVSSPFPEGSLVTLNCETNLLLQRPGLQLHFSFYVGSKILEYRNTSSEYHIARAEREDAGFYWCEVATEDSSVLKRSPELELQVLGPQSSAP

B1: IL6R-BP474 (antibody)
chain 1: QVQLQESGPGLVKPSETLSLTCAVSGHSISHDHAWSWVRQPPGEGLEWIGFISYSGITNYNPSLQGRVTISRDNSKNTLYLQMNSLRAEDTAVYYCARSLARTTAMDYWGEGTLVTVSSASTKGPSVFPLAPSSKSTSGGTAALGCLVKDYFPEPVTVSWNSGALTSGVHTFPAVLQSSGLYSLSSVVTVPSSSLGTQTYICNVNHKPSNTKVDKKVEPKSCDKTHTCPPCPAPDLLGDDSVFLFPPKPKDTLMISRTPEVTCVVVDVSDEDGEVKFNWYVDGVEVHNAKTKPREEQDNSTYRVVSVLTVLHQDWLNGKEYKCKVSNKALPSSIEKTISKAKGQPREPQVYTLPPSRDELTKNQVSLTCLVKGFYPSDIAVEWESNGQPENNYKTTPPVLDSDGSFFLYSKLTVDKSRWQQGNVFSCSVMHEALHNHYTQESLSLSP
chain 2: not shown
As for B1, in the assay with human FcγRIIa R131 [1], binding was characterised by a dissociation constant (Kd) of 3 µM.

B2: IL6R-BP464 (antibody)
chain 1: B1 chain 1 with S269A, D270E, D298Y, S332R, S333P, P398Y
chain 2: not shown
As to B2, the Kd – broadly, a measure of binding affinity in units of concentration – with human FcγRIIb [2] is 0.004 µM.

B3: IL6R-BP151 (antibody)
chain 1: B1 chain 1 with L236Y, D270H, G273P, D298Y, K328A, S332K, S333P
chain 2: not shown
With B3, the figures for the Kd with human FcγRIIa R131 [3], with human FcγRIIb [4] and with human FcγRIa [5] were 0.67 µM, 0.04 µM and 0.084 µM, respectively.

B4: IL6R-BP350 (antibody)
chain 1: B1 chain 1 with S269E, D270E, D298Y, S332A, S333P
chain 2: not shown
B4: binding with human FcγRIIb [6] was characterised by a dissociation constant (Kd) of 0.1 µM.

B5: IL6R-BP456 (antibody)
chain 1: B1 chain 1 with S269A, D270E, D298Y, S332R, S333P, P398M
chain 2: not shown
As for B5, the affinity with human FcγRIa [7], expressed as Kd, was 0.0006 µM.

B6: IL6R-BP520 (antibody)
chain 1: B1 chain 1 with D270E, E274M, D298Y, S332A, S333P
chain 2: not shown
The molecule B6 showed a Kd with human FcγRIIa R131 [8] of 3 µM.

B7: IL6R-BP475 (antibody)
chain 1: B1 chain 1 with A329G, S333P
chain 2: not shown
Molecule B7 came in with a Kd with human FcγRIIa R131 [1] of 1 µM.

B8: IL6R-BP152 (antibody)
chain 1: B1 chain 1 with L236Y, D270H, G273P, K328A, S332K, S333P
chain 2: not shown
Consider B8, for which the Kd with human FcγRIIa R131 [3] worked out at 0.81 µM; with human FcγRIIb [4], 0.041 µM; with human FcγRIa [5] it was 0.073 µM.

B9: IL6R-BP514 (antibody)
chain 1: B1 chain 1 with D270E, E274F, D298Y, S332A, S333P
chain 2: not shown
Consider B9, for which, in the assay with human FcγRIIa R131 [8], the dissociation constant Kd was found to be 30 µM.

B10: IL6R-BP239 (antibody)
chain 1: B1 chain 1 with L236Y, S269Q, K328A, S332R, S333P
chain 2: not shown
Consider B10, for which the Kd with human FcγRIIb [9] worked out at 0.06 µM. That is a double-digit nanomolar value.

B11: IL6R-BP455 (antibody)
chain 1: B1 chain 1 with S269A, D270E, D298Y, S332R, S333P, P398L
chain 2: not shown
Consider B11, for which the affinity in the assay with human FcγRIIb [2], expressed as Kd, was 0.004 µM. This counts as single-digit nanomolar.

B12: IL6R-BP243 (antibody)
chain 1: B1 chain 1 with L236Y, D298Y, S332R, S333P
chain 2: not shown
In the assay with human FcγRIa [10], B12 displayed a Kd of 0.003 µM.

B13: IL6R-BP471 (antibody)
chain 1: B1 chain 1 with S332R
chain 2: not shown
The molecule B13 had a Kd in the assay with human FcγRIIa R131 [1] of 0.8 µM.

B14: IL6R-BP267 (antibody)
chain 1: B1 chain 1 with D270E, D298Y, S332A, S333P
chain 2: not shown
Molecule B14 registered a Kd with human FcγRIa [11] of 0.004 µM.

B15: IL6R-BP468 (antibody)
chain 1: B1 chain 1 with S332R, S333P, K336T
chain 2: not shown
The molecule B15 came in with a Kd in the assay with human FcγRIIb [12] of 0.04 µM.

B16: IL6R-BP237 (antibody)
chain 1: B1 chain 1 with L236Y, S269Q, K328A, S332K, S333P
chain 2: not shown
B16 registered a Kd with human FcγRIIb [9] of 0.1 µM.

B17: IL6R-BP469 (antibody)
chain 1: B1 chain 1 with S332R, S333P, E335S
chain 2: not shown
B17: in the assay with human FcγRIIa R131 [13], the Kd turned out to be 0.6 µM. This counts as sub-micromolar.

B18: IL6R-BP228 (antibody)
chain 1: B1 chain 1 with D235E, L236Y, S269Q, D298Y, K328D, S332R, S333P
chain 2: not shown
In the assay with human FcγRIIb [9], B18 displayed a Kd of 0.04 µM.

B19: IL6R-BP517 (antibody)
chain 1: B1 chain 1 with D270E, E274I, D298Y, S332A, S333P
chain 2: not shown
As for B19, binding in the assay with human FcγRIIa R131 [8] was put at a Kd of 2.1 µM.

B20: IL6R-BP348 (antibody)
chain 1: B1 chain 1 with S269A, D270E, D298Y, S332A, S333P
chain 2: not shown
Take B20: the Kd in the assay with human FcγRIIa R131 [8] was found to be 0.7 µM.

B21: IL6R-BP150 (antibody)
chain 1: B1 chain 1 with D235E, L236Y, D270H, G273P, D298Y, K328A, S332K, S333P
chain 2: not shown
For the molecule B21, the Kd with human FcγRIIa R131 [3] turned out to be 0.55 µM; in the assay with human FcγRIIb [4], 0.031 µM; with human FcγRIa [5] it was 0.32 µM.

B22: IL6R-BP447 (antibody)
chain 1: B1 chain 1 with S269A, D270E, D298Y, S332R, S333P, P398A
chain 2: not shown
Take B22: the Kd with human FcγRIa [7] amounted to 0.0009 µM.

B23: IL6R-BP384 (antibody)
chain 1: B1 chain 1 with S332R, S333P, K336R
chain 2: not shown
On to B23, for which the affinity with human FcγRIa [14], expressed as Kd, was 0.003 µM.

B24: IL6R-BP367 (antibody)
chain 1: B1 chain 1 with D270E, E271D, D298Y, S332A, S333P
chain 2: not shown
In the assay with human FcγRIIb [6], B24 yielded a Kd of 0.1 µM. This counts as sub-micromolar.

B25: VH3/L(WT)-mIgG1 (antibody)
chain 1: QVQLQESGPGLVKPSETLSLTCAVSGHSISHDHAWSWVRQPPGEGLEWIGFISYSGITNYNPSLQGRVTISRDNSKNTLYLQMNSLRAEDTAVYYCARSLARTTAMDYWGEGTLVTVSSAKTTPPSVYPLAPGSAAQTNSMVTLGCLVKGYFPEPVTVTWNSGSLSSGVHTFPAVLQSDLYTLSSSVTVPSSTWPSETVTCNVAHPASSTKVDKKIVPRDCGCKPCICTVPEVSSVFIFPPKPKDVLTITLTPKVTCVVVDISKDDPEVQFSWFVDDVEVHTAQTQPREEQFNSTFRSVSELPIMHQDWLNGKEFKCRVNSAAFPAPIEKTISKTKGRPKAPQVYTIPPPKEQMAKDKVSLTCMITDFFPEDITVEWQWNGQPAENYKNTQPIMDTDGSYFVYSKLNVQKSNWEAGNTFTCSVLHEGLHNHHTEKSLSHSPGK
chain 2: not shown
B25: the binding result in the assay with mouse FcγRIV and with mouse FcγRI was “no binding” in each case.

B26: VH3/L(WT)-mIgG1-mF44 (antibody)
chain 1: B25 chain 1 with A323D
chain 2: not shown
Consider B26, for which the binding result with mouse FcγRIV and in the assay with mouse FcγRI was “no binding” each time.

B27: VH3/L(WT)-mIgG1-mF46 (antibody)
chain 1: B25 chain 1 with S235D, A323D
chain 2: not shown
For the molecule B27, the binding result with mouse FcγRIV and with mouse FcγRI was “no binding” in each case.
